# Laboratory results: patent US20070009511A1 (Bristol-Myers Squibb, published 2007)
# B1: L104EA29YXC120S (receptor)
# chain: MHVAQPAVVLASSRGIASFVCEYASPGKYTEVRVTVLRQADSQVTEVCAATYMMGNELTFLDDSICTGTSSGNQVNLTIQGLRAMDTGLYICKVELMYPPPYYEGIGNGTQIYVIDPEPSPDSD
# notes: also called single chain L104EA29Y extracellular domain
# Target: T1, CD86Ig (UniProt P42081 24-247)
# T1 construct: extracellular domain; Immobilized on BIAcore chips; also called soluble CD86Ig; B7-2
# Experiment: SPR, CD86Ig immobilized, monomer against dimer
# T1 sequence (P42081 24-247): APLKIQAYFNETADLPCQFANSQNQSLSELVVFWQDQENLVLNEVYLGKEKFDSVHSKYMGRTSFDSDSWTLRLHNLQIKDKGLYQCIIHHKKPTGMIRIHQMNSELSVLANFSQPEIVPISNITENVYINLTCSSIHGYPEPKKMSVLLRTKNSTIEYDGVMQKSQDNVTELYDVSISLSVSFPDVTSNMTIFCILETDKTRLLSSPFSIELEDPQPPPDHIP
binder,measurement,value
B1,fold lower binding affinity than the respective dimer (L104EA29YIg),35 to 80 fold
